This is an account of results in patent publication US20240116987A1 (UNIVERSIT CATHOLIQUE DE LOUVAIN, published 2024).

Data set [1] deals with T1, LDH-Htr (truncated human LDH-H, dimeric) (human, UniProt A5A6N7 21-334 (Pan troglodytes entry)).
T1 construct: Recombinant from E. coli; Mainly a dimer, in equilibrium with a weak tetramer; In MST it was labelled with Red-dye-NHS and used at 100 nM; also called hLDH-Htr; truncated LDH-H; not shown: N-terminal 6-His tag from pET-28a (NdeI site)
Kind of data set: MST, labelled LDH-Htr 100 nM, 1.5 s on time, n=3. The method, then: MST measurements were performed on a Nanotemper® Monolith NT.115 instrument (NanoTemper Technologies®) using Red-dye-NHS fluorescent labelling. […] Measurements were performed in 50 mM sodium phosphate, pH 7.6, and 100 mM NaCl containing 0.01% Tween-20 in standard-treated capillaries (NanoTemper Technologies®). The final concentration of proteins in the assay was 100 nM. Ligands were titrated in 1:1 dilutions following manufacturer's recommendations. Experiments were performed in triplicates using 40% LED power, high MST power, […] and Laser off time 3 s. Poypeptides were evaluated for their thermophoretic pattern, and Kd's were extracted from raw data at a 1.5 s MST on time following the manufacturer's instructions.

Data set [2] has as its target LDH-5 (tetramer of human LDH-M subunits, LDH-M4) (human, UniProt P00338 2-332). In words: cell-based or functional assay.

Ends that are not written are not given here.

T1 sequence (A5A6N7 21-334): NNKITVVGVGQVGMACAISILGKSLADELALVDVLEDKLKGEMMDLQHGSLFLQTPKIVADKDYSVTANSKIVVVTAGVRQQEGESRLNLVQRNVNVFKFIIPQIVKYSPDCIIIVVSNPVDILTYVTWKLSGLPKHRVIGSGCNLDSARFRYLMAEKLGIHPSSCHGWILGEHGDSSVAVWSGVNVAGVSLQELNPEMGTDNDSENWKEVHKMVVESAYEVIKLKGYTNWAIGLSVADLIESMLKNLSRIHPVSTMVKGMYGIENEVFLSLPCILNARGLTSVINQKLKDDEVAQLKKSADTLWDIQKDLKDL

B1: polypeptide LP-22 (peptide)
peptide: LEDKLKGEMMDLQHGSLFLQTP-NH2
notes: Synthetic peptide bought from Genecust; also called "cluster B1"-derived polypeptide
Consider B1, for which the Kd (in general, a measure of binding affinity in units of concentration) in data set [1] turned out to be 156 µM.

B2: polypeptide GP-16 (peptide)
peptide: Ac-GEMMDLQHGSLFLQTP-NH2
notes: Synthetic peptide bought from Genecust
On to B2, for which the “EC50 of ΔTm (NanoDSF destabilization) of tetrameric LDH-5 (300 nM)” value in data set [2] came out at 262 µM. This molecule also gave a dissociation constant Kd in data set [1] of 240 µM.
